{"source": "paper PMC6023760", "origin": "cited, not measured here", "molecular_target": "Thrombin exosite 2 (Homo sapiens) (UniProt P00734)", "note": "pKd: −log10 of the molar value.", "data": [{"substance": "Fibrin γ′-chain γ′ site (from UniProt P02679)", "values": [{"measurement": "pKd", "value": 6.70}]}]}
